Test results from US20260139046A1 (ATTOVIA THERAPEUTICS, published 2026).

T1: human IL31 (human, UniProt Q6EBC2 24-164, biotinylated in the SPR assay (site not stated))
T1 construct: Immunisation and selection used His-tagged or biotinylated human IL31; also called interleukin-31; hIL31
T1 sequence: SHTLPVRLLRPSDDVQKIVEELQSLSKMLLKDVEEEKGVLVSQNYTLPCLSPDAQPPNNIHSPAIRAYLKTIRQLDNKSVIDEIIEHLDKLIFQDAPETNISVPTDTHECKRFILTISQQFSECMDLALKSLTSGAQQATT


Key:
human IL31 [1] = target: T1, human IL31; assay: binding kinetics, large-scale material, baseline sample; method and target not restated (SPR on IL31 presumed)
human IL31 [2] = target: T1, human IL31; assay: SPR (Biacore T200, Biotin CAPture): biotinylated IL31 captured, co-binder Fc fusion as analyte
Method: (§1) Binding affinity was measured using Biotin CAPture Kit (Cytiva Life Sciences) and the BIACORE™ T200 SPR system (Cytiva Life Sciences). Initially, Biotin CAPture Reagent (Cytiva Life Sciences) was flowed to immobilize 3 nM biotinylated IL31 (ligand). 3 nM, 9 nM, and 27 nM anti-IL31 co-binders were flowed as analyte with 180 seconds association and running buffer was flowed with 3000 seconds dissociation. The sensor chip was regenerated by guanidine hydrochloride and sodium hydroxide.

human IL31 [3] = target: T1, human IL31; assay: as above; remark: listed apart in the source
Method: as §1

human IL31 [4] = target: T1, human IL31; assay: cell-based or functional assay
human IL31 [5] = target: T1, human IL31; assay: cell-based or functional assay; remark: listed apart in the source
human IL31 [6] = target: T1, human IL31; assay: KD of wild-type and humanized co-binders; method not restated (SPR as in Example 4 presumed)
human IL31 [7] = target: T1, human IL31; assay: cell-based or functional assay; remark: listed apart in the source
human IL31 [8] = target: T1, human IL31; assay: binding kinetics after 3x freeze/thaw; method and target not restated (SPR on IL31 presumed)

| Kd (human IL31 [1]) [nM] | koff (human IL31 [1]) [s⁻¹] | kon (human IL31 [1]) [M⁻¹ s⁻¹] | Kd (human IL31 [2]) [nM] | Kd (human IL31 [3]) [nM] | Activity (IC50, nM), pSTAT3 assay (P^3) (human IL31 [4]) [nM] | EC50 (pSTAT3) nM (human IL31 [5]) [nM] | Kd (human IL31 [6]) [nM] | Activity (IC50, nM); pSTAT3 assay per Table 4 (human IL31 [7]) [nM] | Kd (human IL31 [8]) [nM] | koff (human IL31 [8]) [s⁻¹] | kon (human IL31 [8]) [M⁻¹ s⁻¹] | Binder |
| --- | --- | --- | --- | --- | --- | --- | --- | --- | --- | --- | --- | --- |
| 1.94 | 0.000405 | 209000 | 0.024 | 0.024 | 6.7 | 8.42 | 0.0153 | 6.7 | 3.22 | 0.000628 | 195000 | 1D1 co-binder + huIgG1Fc_YTE_C→S (Fc fusion, VHH1-linker-VHH2-Fc; also called 1D1 WT; 1D1Fc) EVQLVESGGGLVQAGGSLRLSCAASGGTFSSYAMAWFRQAPGKEREYVAGISSSGYTLYKSDSMKGRFTISRENAKNMVYLQMNSLKPEDTAVYSCAAGIFGRPYEYWGQGTLVTVSSGGGSGGGGSGGGGSGGGGSGGGGSPSMGVKLEESGGGLVQAGGSLILSCAASGDIPSIVAMGWYRQAPGKQRELVAAITSGGRTHYRDSVKGRFTISGNNDNSALYLHMNSLKPEDTAVYYCAADMGLTAVGEYDYWGQGTQVTVSSEPKSSDKTHTCPPCPAPELLGGPSVFLFPPKPKDTLYITREPEVTCVVVDVSHEDPEVKFNWYVDGVEVHNAKTKPREEQYNSTYRVVSVLTVLHQDWLNGKEYKCKVSNKALPAPIEKTISKAKGQPREPQVYTLPPSRDELTKNQVSLTCLVKGFYPSDIAVEWESNGQPENNYKTTPPVLDSDGSFFLYSKLTVDKSRWQQGNVFSCSVMHEALHNHYTQKSLSLSPGK |
| 0.136 | 0.000138 | 1.01e+06 | 0.0032 | 0.0032 | 6.1 |  |  | 6.1 | 0.619 | 0.000551 | 890000 | 1H5 co-binder + huIgG1Fc_YTE_C→S (Fc fusion, VHH1-linker-VHH2-Fc) EVQLVESGGGSVQAGGSLRLSCAASGGTFSSYAMAWFRQAPGKEREYVAGISSSGYTLYKSDSMKGRFTISRENAKNMVYLQMNSLKPEDTAVYSCAAGIFGRPYEYWGQGTQVTVSSGGGGSGGGGSGGGGSRSVGVQLVESGGGLVQAGGSLRLSCAASGSISSIHAMGWYRQAPGKQRELIAAITSGGRRHYRDSVKGRFTISGDNAKTNLYLQMNSLKPEDTAVYYCAADTGRVAVGEYDYWGQGTLVTVSSEPKSSDKTHTCPPCPAPELLGGPSVFLFPPKPKDTLYITREPEVTCVVVDVSHEDPEVKFNWYVDGVEVHNAKTKPREEQYNSTYRVVSVLTVLHQDWLNGKEYKCKVSNKALPAPIEKTISKAKGQPREPQVYTLPPSRDELTKNQVSLTCLVKGFYPSDIAVEWESNGQPENNYKTTPPVLDSDGSFFLYSKLTVDKSRWQQGNVFSCSVMHEALHNHYTQKSLSLSPGK |
| 18.6 | 0.00423 | 228000 | 0.0148 | 0.0148 | 8.4 | 6.65 | 0.0104 | 8.4 | 19.4 | 0.00435 | 224000 | 21H7 co-binder + huIgG1Fc_YTE_C→S (Fc fusion, VHH1-linker-VHH2-Fc; also called 21H7 WT; 21H7Fc) EVQLVESGGGLVQAGGSLRLSCAASGGTFSSYTMGWFRQAPGKEREYVGGISSSGYVMYNSESMKGRFTISRENAKNMVYLQMNSLKPEDTAVYYCAAGTIGRPYDYWGQGTQVTVSSGGGSGGGGSGGGGSGGGGSGGGGSGGGGSGGGGSEGVGLVESGGGSVQAGDSLRLSCAASGRTFSTYIIGWFRQAPGKEREFVASISWGGRGTYYADSVKDRFTISRDNPKNMVYLQMNSLKPEDTAVYYCAAGDLPGGRRALDYDYWGQGTLVTVSSEPKSSDKTHTCPPCPAPELLGGPSVFLFPPKPKDTLYITREPEVTCVVVDVSHEDPEVKFNWYVDGVEVHNAKTKPREEQYNSTYRVVSVLTVLHQDWLNGKEYKCKVSNKALPAPIEKTISKAKGQPREPQVYTLPPSRDELTKNQVSLTCLVKGFYPSDIAVEWESNGQPENNYKTTPPVLDSDGSFFLYSKLTVDKSRWQQGNVFSCSVMHEALHNHYTQKSLSLSPGK |
| 1.5 | 0.00033 | 220000 | 0.0587 | 0.0587 | 8.5 | 6.57 | 0.0126 | 8.5 | 3.45 | 0.000675 | 196000 | 1C10 co-binder + huIgG1Fc_YTE_C→S (Fc fusion, VHH1-linker-VHH2-Fc; also called 1C10 WT; 1C10Fc) EVQLVESGGGLVQAGGSLRLSCAASGGTFSSYTMGWFRQAPGKEREYVGGISSSGYVMYNSESMKGRFTISRENAKNMVYLQMNSLKPEDTAVYYCAAGTIGRPYDYWGQGTQVTVSSGGGSGGGGSGGGGSGGGGSGGGGSGGGGSGGGGSGMTGVKLEESGGGLVQPGGSLILSCAASGDISSIVAMGWYRQAPGKQRELVAAITSGGRTHYRDSVKGRFTISGNNDNSALYLHMNSLKPEDTAVYYCAADRGWTSVGEYDYWGKGTLVTVSSEPKSSDKTHTCPPCPAPELLGGPSVFLFPPKPKDTLYITREPEVTCVVVDVSHEDPEVKFNWYVDGVEVHNAKTKPREEQYNSTYRVVSVLTVLHQDWLNGKEYKCKVSNKALPAPIEKTISKAKGQPREPQVYTLPPSRDELTKNQVSLTCLVKGFYPSDIAVEWESNGQPENNYKTTPPVLDSDGSFFLYSKLTVDKSRWQQGNVFSCSVMHEALHNHYTQKSLSLSPGK |
